From PMC3155284 come the findings set out here.

In experiment [1] the target is EphA2, endogenous (human (endogenous in PC3 and U251)) (UniProt P29317).
The target is the same in experiment [2]. This is another data set of the same source.

UniProt P29317, sequence (P29317 24-976): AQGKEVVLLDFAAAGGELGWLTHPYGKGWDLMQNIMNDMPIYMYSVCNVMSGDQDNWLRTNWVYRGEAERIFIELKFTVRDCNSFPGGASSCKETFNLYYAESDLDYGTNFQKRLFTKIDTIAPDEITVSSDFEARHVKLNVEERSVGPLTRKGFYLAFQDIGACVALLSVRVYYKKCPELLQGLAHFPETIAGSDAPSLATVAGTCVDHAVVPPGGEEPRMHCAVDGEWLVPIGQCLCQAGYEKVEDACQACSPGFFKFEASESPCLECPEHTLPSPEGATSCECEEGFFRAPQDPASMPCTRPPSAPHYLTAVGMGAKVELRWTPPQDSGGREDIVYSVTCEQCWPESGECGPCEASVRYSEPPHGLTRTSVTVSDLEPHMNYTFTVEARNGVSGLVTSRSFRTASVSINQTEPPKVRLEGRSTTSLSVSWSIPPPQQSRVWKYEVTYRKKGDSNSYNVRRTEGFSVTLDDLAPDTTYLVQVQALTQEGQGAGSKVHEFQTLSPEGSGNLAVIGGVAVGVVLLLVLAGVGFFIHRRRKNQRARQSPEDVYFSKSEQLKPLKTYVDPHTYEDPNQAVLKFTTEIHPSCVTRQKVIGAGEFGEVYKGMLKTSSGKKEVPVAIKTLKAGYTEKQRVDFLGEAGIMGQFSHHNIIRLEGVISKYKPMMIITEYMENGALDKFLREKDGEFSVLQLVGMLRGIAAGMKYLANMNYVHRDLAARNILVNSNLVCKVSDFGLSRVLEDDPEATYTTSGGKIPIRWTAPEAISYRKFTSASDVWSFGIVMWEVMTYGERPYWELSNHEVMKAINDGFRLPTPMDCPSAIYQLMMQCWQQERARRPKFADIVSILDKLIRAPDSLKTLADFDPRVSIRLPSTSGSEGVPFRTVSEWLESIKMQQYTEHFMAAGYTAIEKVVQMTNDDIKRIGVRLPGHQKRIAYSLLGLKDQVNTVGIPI

As for “ephrin A1-Fc (from UniProt P20827 19-182) (Fc fusion)”, the rounding of PC3 cells after a brief exposure to ephrin A1-Fc in experiment [1] was 90%. In addition, in experiment [2], the inhibition of U251 cell migration in Boyden chambers by ligand came out at 50%.
